Results on 3 molecules are retold here after PMC7007383 (Cancer discovery, 2019).

For assay [1], the target named is recombinant RHOA Y42C (human, UniProt P61586 1-193, Y42C). The assay is described as follows: other fluorescence titration.
Assay [2] deals with recombinant RHOA wild type (human, UniProt P61586 1-193). The assay is described as follows: other fluorescence titration.
recombinant RHOA wild type, sequence (P61586 whole entry): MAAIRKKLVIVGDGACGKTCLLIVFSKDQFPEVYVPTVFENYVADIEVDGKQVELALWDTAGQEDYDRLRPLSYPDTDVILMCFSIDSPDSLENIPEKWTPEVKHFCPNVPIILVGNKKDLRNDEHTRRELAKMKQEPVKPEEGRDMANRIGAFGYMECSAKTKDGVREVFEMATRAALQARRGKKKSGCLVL

recombinant RHOA Y42C, sequence (P61586 whole entry Y42C): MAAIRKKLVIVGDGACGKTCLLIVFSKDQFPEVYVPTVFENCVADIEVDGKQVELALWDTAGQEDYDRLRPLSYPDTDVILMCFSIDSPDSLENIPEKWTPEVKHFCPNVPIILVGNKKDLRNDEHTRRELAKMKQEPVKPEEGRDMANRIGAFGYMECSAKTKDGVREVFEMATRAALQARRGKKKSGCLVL

B1: ROCK RHOA-GTP binding domain (RBD) (domain or fragment)
chain: TKDIEILRRENEELTEKMKKAEEEYKLEKEEEISNLKAAFEKNINTERTLKTQAVNKLAEIMNRKDF
Regarding B1, in assay [1], the “fold change of binding against RHOA WT” value turned out to be 12 fold. Further, the equilibrium dissociation constant (Kd) in assay [2] was 380 ± 30 nM.

B2: mDia RHOA-GTP binding domain (RBD) (domain or fragment)
chain: LQDISDEQVLVLFEQMLVDMNLNEEKQQPLREKDIVIKREMVSQYLHTSKAGMNQKESSRSAMMYIQELRSGLRDMHLLSCLESLRVSLNNNPVSWVQTFGAEGLASLLDILKRLHDEKEETSGNYDSRNQHEIIRCLKAFMNNKFGIKTMLETEEGILLLVRAMDPAVPNMMIDAAKLLSALCILPQPEDMNERVLEAMTERAEMDEVERFQPLLDGLKSGTSIALKVGCLQLINALITPAEELDFRVHIRSELMRLGLHQVLQELREIENEDMKVQLCVFDEQGDEDFFDLKGRLDDIRMEMDDFGEVFQIILNTVKDSKAEPHFLSILQHLLLVRNDYEARPQYYKLIEECVSQIVLHKNGTD
Turning to B2, the Kd in assay [2] amounted to 460 ± 60 nM.

B3: Rhotekin RHOA-GTP binding domain (RBD) (domain or fragment, UniProt Q8C6B2 17-98, looked up)
chain: ALEMEFKRGRFRLSFFSESPEDTELQRKLDHEIRMRDGACKLLAACSQREQALEATKSLLVCNSRILSYMGELQRRKEAQVL
Take B3: the Kd in assay [2] was determined as 500 ± 40 nM.
